We go through five molecules from publication PMC5785985, “Molecular snapshots of APE1 proofreading mismatches and removing DNA damage”.

In series [1] the target is T1, APE1 (ΔAPE1 C138A) (Homo sapiens, UniProt P27695 44-318, C138A). Nature of the series: X-ray crystallography (2.10 Å); no metal resolved; Crystallization: 7-14% PEG 20K, 100 mM sodium citrate pH 5.0, 15% glycerol, 5 mM CaCl2, 20 °C; 0.56 mM DNA, 10-12 mg/ml APE1; data at 100 K. The note with it: protein: recombinant; nicked duplex, three strands 1:1:1, blunt ends, C/T mismatch at 3' end of nick.
T1 sequence (P27695 44-318 C138A): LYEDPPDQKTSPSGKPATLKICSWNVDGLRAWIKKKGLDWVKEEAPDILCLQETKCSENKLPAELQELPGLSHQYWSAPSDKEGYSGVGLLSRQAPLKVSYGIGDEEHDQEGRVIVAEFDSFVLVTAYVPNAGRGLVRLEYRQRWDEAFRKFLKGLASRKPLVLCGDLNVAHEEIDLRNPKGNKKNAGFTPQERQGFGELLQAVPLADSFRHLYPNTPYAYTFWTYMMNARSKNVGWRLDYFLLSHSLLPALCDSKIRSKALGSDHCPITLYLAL

The target of series [2] is APE1 F266A (ΔAPE1 C138A F266A) (Homo sapiens, UniProt P27695 44-318, C138A;F266A). Briefly: X-ray crystallography; Crystallization: 7-14% PEG 20K, 100 mM sodium citrate pH 5.0, 15% glycerol, 5 mM CaCl2, 20 °C; 0.56 mM DNA, 10-12 mg/ml APE1; data at 100 K. The note with it: protein: recombinant; nicked duplex, three strands 1:1:1, blunt ends, C/T mismatch at 3' end of nick.
Chain of APE1 F266A (ΔAPE1 C138A F266A) (P27695 44-318 C138A/F266A): as the sequence (P27695 44-318 C138A) above, with F223A counted along it

Series [3] deals with T1, APE1 (ΔAPE1 C138A). Briefly: X-ray crystallography (2.3 Å); MgCl2 soak 2.5 h, no metal resolved; Crystallization: 7-14% PEG 20K, 100 mM sodium citrate pH 5.0, 15% glycerol, 5 mM CaCl2, 20 °C; 0.56 mM DNA, 10-12 mg/ml APE1; data at 100 K. The note with it: protein: recombinant; 1-nt gapped duplex, three strands, blunt ends.
For series [4], the target named is T1, APE1 (ΔAPE1 C138A). Briefly: X-ray crystallography (2.6 Å); Crystallization: 7-14% PEG 20K, 100 mM sodium citrate pH 5.0, 15% glycerol, 5 mM CaCl2, 20 °C; 0.56 mM DNA, 10-12 mg/ml APE1; data at 100 K. The note with it: protein: recombinant; nicked duplex, three strands 1:1:1, blunt ends, fully paired.
The target in series [5] is T1, APE1 (ΔAPE1 C138A). Nature of the series: X-ray crystallography; 5 mM CaCl2, no metal resolved; Crystallization: 7-14% PEG 20K, 100 mM sodium citrate pH 5.0, 15% glycerol, 5 mM CaCl2, 20 °C; 0.56 mM DNA, 10-12 mg/ml APE1; data at 100 K. As to conditions: protein: recombinant; nicked duplex, three strands 1:1:1, blunt ends, C/T mismatch at 3' end of nick.

B1: 21-mer nicked duplex, 3' C/T mismatch, phosphorothioate (dsDNA)
DNA 1: GGATCCGTCGATCGCATCAGC
DNA 2: GCTGATGCGC
DNA 3: TCGACGGATCC
modifications: phosphorothioate 5' to the 3'-terminal C of strand 2 (Sp and Rp); 5'-phosphate on strand 3
Consider B1, for which, in the series with APE1 (ΔAPE1 C138A) [1], the binding result is reported as “binds”.

B2: 21-mer nicked duplex, 3' C/T mismatch (F266A crystal) (dsDNA)
DNA 1: GGATCCGTCGATCGCATCAGC
DNA 2: GCTGATGCGC
DNA 3: TCGACGGATCC
modifications: 5'-phosphate on strand 3; phosphorothioate not stated for this crystal
For B2, the binding result in series [2] was “binds”.

B3: 21-mer duplex with 1-nt gap (exo product) (dsDNA)
DNA 1: GGATCCGTCGATCGCATCAGC
DNA 2: GCTGATGCG
DNA 3: TCGACGGATCC
modifications: 5'-phosphate on strand 3; 3'-OH on strand 2
Turning to B3, in the series with APE1 (ΔAPE1 C138A) [3], the binding result is reported as “binds”.

B4: 21-mer nicked duplex, 3' C/G match (dsDNA)
DNA 1: GGATCCGTCGAGCGCATCAGC
DNA 2: GCTGATGCGC
DNA 3: TCGACGGATCC
modifications: 5'-phosphate on strand 3
Take B4: the binding result with APE1 (ΔAPE1 C138A) [4] was “binds”.

B5: 21-mer nicked duplex, 3' C/T mismatch (dsDNA)
DNA 1: GGATCCGTCGATCGCATCAGC
DNA 2: GCTGATGCGC
DNA 3: TCGACGGATCC
modifications: 5'-phosphate on strand 3
With B5, the binding result in the series with APE1 (ΔAPE1 C138A) [5] is given as “binds”.
